Experimental data: PMC9610538, “Trihelix Transcriptional Factor GhGT26 of Cotton Enhances Salinity Tolerance in Arabidopsis”

T1: GhGT26 (GST fusion) (Gossypium hirsutum, UniProt A0A8J9W0A6 1-391)
T1 sequence: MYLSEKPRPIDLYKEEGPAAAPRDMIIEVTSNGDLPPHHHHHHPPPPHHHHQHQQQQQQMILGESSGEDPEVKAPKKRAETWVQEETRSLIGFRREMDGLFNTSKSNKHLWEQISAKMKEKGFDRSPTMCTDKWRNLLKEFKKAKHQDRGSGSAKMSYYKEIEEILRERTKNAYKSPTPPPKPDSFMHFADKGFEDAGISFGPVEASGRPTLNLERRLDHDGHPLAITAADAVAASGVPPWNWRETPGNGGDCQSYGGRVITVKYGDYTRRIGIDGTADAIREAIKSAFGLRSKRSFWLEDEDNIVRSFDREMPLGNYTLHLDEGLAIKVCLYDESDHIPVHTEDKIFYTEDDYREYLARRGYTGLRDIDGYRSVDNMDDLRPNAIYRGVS

B1: Site1-type (GT-3a) (dsDNA)
DNA 1: GCGTTACCGTTACCGTTACCAA
DNA 2: TTGGTAACGGTAACGGTAACGC
B2: MRE3 (dsDNA)
DNA 1: TCTAACCTACTAACCTACTAACCTACCA
DNA 2: TGGTAGGTTAGTAGGTTAGTAGGTTAGA
B3: MRE4 (dsDNA)
DNA 1: TATCTCACCTCTCACCTCTCACCGT
DNA 2: ACGGTGAGAGGTGAGAGGTGAGATA

target: T1, GhGT26 (GST fusion); experiment: EMSA; signal dramatically reduced by unlabeled competitor; Oligos annealed in 50 mM NaCl (70 °C 5 min, then room temperature); EMSA binding buffer, pH and temperature not given (as in ref. 48); conditions: protein: recombinant; tags: GST (pGEX6p-1); label: digoxigenin; blunt (reverse complement stated)

Binding result, binds:
B1, B2, B3
